Experiment [1] has as its target T1, human PD-L1 expressed on CHO-K1 cells (Genscript, Cat #M00543) (human, UniProt Q9NZQ7 19-290).
T1 construct: also called PD-L1 cell line
The experiment in a line: FACS, CHO-K1/human PD-L1 cells. The procedure:
(§1) PD-L1 stable cell line binding activity assessment of 12 mouse mAbs was carried out using FACS. CHO-K1 cells expressing human PD-L1 (Genscript, Cat #M00543) were dissociated from adherent culture flasks and mixed with varying concentrations of antibodies. The antibody and cells were incubated for 30 minutes at room temperature, washed three times with FACS buffer (PBS containing 1% BSA). PE-labeled goat anti-mouse IgG (minimal x-reactivity) secondary antibody (BioLegend, Cat #405307) was added and incubated at room temperature for 15 minutes. Cells were washed again with FACS buffer and analyzed by FACSCalibur (BD Bioscience, San Jose, Calif.) and Flowjo software. Data were analyzed with Prism 6 (GraphPad Software, San Diego, Calif.) using non-linear regression, and EC₅₀ values were calculated (FIGS. 2A-2L and Table 3).

The target in experiment [2] is T1, human PD-L1 expressed on CHO-K1 cells …. The experiment in a line: FACS on CHO-K1 cells expressing human PD-L1, PE-labeled goat anti-mouse IgG secondary antibody. Here is the method:
as §1

For experiment [3] the target is unchanged. The experiment in a line: cell-based or functional assay.
Experiment [4] shares this target. The experiment can be described thus: FACS competition vs biotin-PD-1-Fc on CHO-K1/human PD-L1 cells. Here is the method:
A series of diluted mouse mAbs (concentration starting from 900 nM, 3 fold dilution, 50 μl per well) were added afterwards. The mixture was incubated at 4° C. for 30 minutes, washed twice with wash buffer, followed by the addition of PEcy5/streptavidin (1 μg/ml, 150 μl/well). The plates were again incubated at 4° C. for 30 minutes before the cells in each well were analyzed by FACSCalibur (BD Bioscience, San Jose, Calif.) and Flowjo software.

Experiment [5] concerns the target T2, His-tagged PD-L1 ECD protein (ACROBiosystems) (human, UniProt Q9NZQ7 19-238).
T2 construct: Bought protein; also called PD-L1-His; PD-L1/His; not shown: His tag
The experiment in a line: SPR, supernatant IgG captured, PD-L1-His analyte. On the technique in general: SPR reads the build-up and loss of mass on a sensor chip optically.

Experiment [6] deals with T2, His-tagged PD-L1 ECD protein …. The experiment can be described thus: SPR, supernatant IgG captured, PD-L1-His analyte. This is another data set of the same source.
Experiment [7] addresses T1, human PD-L1 expressed on CHO-K1 cells …. The experiment in a line: FACS, CHO-K1/human PD-L1 cells. Here is the method:
as §1
Human and cynomolgus PD-L1 stable cell line binding activity assessment of chimeric and humanized mAbs was carried out using FACS as described above (FIGS. 9A-9L and FIGS. 10A-10L and Tables 13 and 14).
The source holds these as a separate data set.

Experiment [8] has as its target T3, cynomolgus PD-L1 overexpressing stable cell line (cynomolgus, UniProt G7PSE7 19-290).
T3 construct: also called cynomolgus PD-L1 overexpressing cell line
The experiment in a line: FACS, cynomolgus PD-L1 cell line. (Flow cytometry measures light scatter and fluorescence of single cells or particles in a stream.)

In experiment [9] the target is cynomolgus PD-L1 Fc-fusion protein (cynomolgus, UniProt G7PSE7 19-238). The experiment in a line: SPR, cyno PD-L1-Fc immobilised, antibody analyte.
Sequence of cynomolgus PD-L1 Fc-fusion protein (G7PSE7 entry or part of it limits assumed): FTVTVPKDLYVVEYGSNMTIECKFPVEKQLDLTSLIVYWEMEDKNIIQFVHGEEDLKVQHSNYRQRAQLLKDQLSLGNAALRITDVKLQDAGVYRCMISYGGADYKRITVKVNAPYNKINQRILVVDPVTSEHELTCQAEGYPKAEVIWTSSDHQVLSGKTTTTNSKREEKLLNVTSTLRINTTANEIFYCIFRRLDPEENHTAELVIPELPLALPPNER
In experiment [10] the target is T1, human PD-L1 expressed on CHO-K1 cells …. The experiment in a line: cell-based or functional assay. The source holds these as a separate data set.
For experiment [11], the target named is T2, His-tagged PD-L1 ECD protein …. The experiment in a line: SPR, IgG captured by anti-human Fc, PD-L1-His analyte. The procedure:
(§2) Briefly, capturing antibody (anti-mouse Fc antibody for the affinity measurement of mouse mAbs, or anti-human Fc antibody for the affinity measurement of chimeric and humanized mAbs, GE healthcare) was immobilized on a Biacore™ CM5 chip to approximately 7,000 RU using EDC-activated amine coupling chemistry. Antibody of interest (5 μg/ml) was captured for 60 seconds onto the sensorchip surface. His-tagged PD-L1 ECD protein (ACROBiosystems) was flowed over the sensorchip surface at a series concentrations. Flow rate was 30 μl/min in all experiments. Association and dissociation phases were 5 and 15 min, respectively. The chip was regenerated using Glycine/HCl pH 1.5. Captured antibody and antigen were removed between each cycle using 50 mM HCl in order to ensure a fresh binding surface for each concentration of antigen. The resulting sensorgrams were fit globally using a 1:1 binding model in order to calculate on- and off-rates (ka and kd, respectively), as well as affinities (KD).

The target is the same in experiment [12]. The experiment in a line: SPR, mAb captured via anti-Fc, PD-L1-His analyte. Here is the method: as §2
For experiment [13] the target is unchanged. The experiment in a line: SPR, supernatant IgG captured, PD-L1-His analyte. This is another data set of the same source.

Eight molecules from patent US20220135687A1 (NANJING LEGEND BIOTECH, published 2022) can be followed below.

Where a chain is given by its changes, count along the chain named. Numbers in names are those of the source. Read-outs that look alike come from different tables or passages of the source.

T3 sequence (G7PSE7 entry or part of it limits assumed): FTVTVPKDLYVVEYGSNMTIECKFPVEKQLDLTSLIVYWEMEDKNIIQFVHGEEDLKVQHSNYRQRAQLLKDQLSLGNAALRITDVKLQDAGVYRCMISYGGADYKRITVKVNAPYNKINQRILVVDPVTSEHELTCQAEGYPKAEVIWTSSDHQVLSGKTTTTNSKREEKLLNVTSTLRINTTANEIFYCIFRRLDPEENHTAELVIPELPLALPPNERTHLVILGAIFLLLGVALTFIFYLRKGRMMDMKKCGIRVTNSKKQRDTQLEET
T1 sequence (Q9NZQ7 19-290, one chain of several): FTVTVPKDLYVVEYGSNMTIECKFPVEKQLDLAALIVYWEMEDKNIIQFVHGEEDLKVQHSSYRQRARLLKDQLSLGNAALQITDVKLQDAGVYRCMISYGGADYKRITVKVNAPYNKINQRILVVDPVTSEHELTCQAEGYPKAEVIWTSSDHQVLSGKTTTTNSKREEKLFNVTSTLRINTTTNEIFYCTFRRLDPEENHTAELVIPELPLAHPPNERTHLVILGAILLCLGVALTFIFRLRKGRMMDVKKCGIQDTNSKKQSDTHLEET
T2 sequence (Q9NZQ7 19-238): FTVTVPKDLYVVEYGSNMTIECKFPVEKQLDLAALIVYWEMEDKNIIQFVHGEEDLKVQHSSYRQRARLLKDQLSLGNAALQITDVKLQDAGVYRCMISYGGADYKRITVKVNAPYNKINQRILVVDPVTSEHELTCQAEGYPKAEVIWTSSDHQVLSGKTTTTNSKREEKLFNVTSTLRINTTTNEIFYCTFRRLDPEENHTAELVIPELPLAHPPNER

B1: 18B7F4G8 (antibody, V domains shown)
VH: DVQLQESGPDLVKPSQSLSLTCTVTGYSITSGYTWHWIRQFPGNKLEWMGYIHYSGSTKYNPSLKSRFSITRDTSKNQFFLQLNSMTAEDTATYYCARNSLFASWGHGTLVTVSA
VL: DIVLTQSPASLAVSLGQRATISCRASESVDTYGDSFMHWFQQKPGQPPKLLIYRASNLESGIPARFSGSGSRTDFTLTINPVEADDVATYYCQQSNEAPYTFGGGTKLEIK
notes: Mouse mAb from hybridoma culture
B1: in experiment [1], a half-maximal effect (EC50) was put at 0.62 nM and the “Top (best-fit value)” value came to 399. In addition, the EC50 (read off the curve) (as a rule, the concentration at which the effect is half-maximal) in experiment [2] is about 3 nM. Moreover, in [3], the “EC50, PD-L1 cell-based luciferase reporter assay” value was determined as 2.27 nM.

B2: 27D3D3G2 (antibody, V domains shown)
VH: QVLLQQSGPELVKPGASVRISCKASGYTFTSYYMHWVKQRPGQGLEWIGWIYPGNVNTKYNEKFKGKATLTADKSSSTAYMQLSSLTSEDSAVYFCASYGNYGGWYFDVWGAGTTVTVSS
VL: DIQMTQTTSSLSASLGDRVTISCRASQDIGNYLNWYQQKPDGTVKLLIYYTSRLHSGVPSRFSGSGSGTDYSLTISNLEQEDIATYFCQQGDTFPWTFGGGTKLEIK
notes: as for B1
Take B2: in [1], a half-maximal response (EC50) required 4.19 nM and the “Top (best-fit value)” value turned out to be 1770. Also, in [3], the “EC50, PD-L1 cell-based luciferase reporter assay” value stood at 3.62 nM. In addition, the IC50 – broadly, the concentration that inhibits the measured activity by half – in [4] came out at 1.28 nM.

B3: 53C1_chimeric (antibody, human IgG1, kappa, N297A, V domains shown)
VH: QVQLQQSGNELARPGASVRLSCKASGYIFTGYGITWVRQRPGQGLEWIGEIFPRRVNTYYSEKFKGRATLTADISSSTAYMELRSLTSEDSAVYFCARDYDPYFALDYWGQGTSVTVSS
VL: DIVMTQSHKFMSTSVGDRVSITCKASQDVSTAVDWYQQKPGQSPKLLIYSASYRYTGVPDRFTGSGSGTAFTFTISGEQAEDLAVYYCQQHYSIPFTFGGGTKLEIKR
notes: Human IgG1 with effector-less Fc mutations, human kappa; also called chimeric 53C1F3D4
With B3, the Kd – broadly, the free concentration of one partner at which half of the binding sites on the other are occupied at equilibrium, for simple one-to-one binding – in [5] came to 0.72 nM; in experiment [6], 0.75 nM; in [9], 1.1 nM; in experiment [11] it was 0.78 nM. Further, the koff (as a rule, the rate constant with which the complex falls apart) in [5] is 0.00018 s⁻¹; in experiment [6] it was 0.00019 s⁻¹; in [9], 9.5e-05 s⁻¹; in experiment [11] it was 0.00019 s⁻¹. For the same molecule, the kon (usually the rate constant with which the complex forms) in [5] is 250000 M⁻¹ s⁻¹; in experiment [6], 260000 M⁻¹ s⁻¹; in experiment [9], 87000 M⁻¹ s⁻¹; in experiment [11] it was 240000 M⁻¹ s⁻¹. Further, the EC50 (commonly the concentration that produces a half-maximal response) in [7] was 1.79 nM; in experiment [8] it was 2.88 nM. Further, the “Top (best-fit value)” value in experiment [7] was found to be 6230; in experiment [8], 8490. For the same molecule, in [10], the “EC50, PD-L1 cell-based luciferase reporter assay” value came out at 1.98 nM. The IC50 in experiment [4] is 0.59 nM.

B4: 53C1F3D4 (antibody, V domains shown)
VH: B3 VH
VL: DIVMTQSHKFMSTSVGDRVSITCKASQDVSTAVDWYQQKPGQSPKLLIYSASYRYTGVPDRFTGSGSGTAFTFTISGEQAEDLAVYYCQQHYSIPFTFGGGTKLEIK
notes: Mouse mAb from hybridoma culture; also called mouse 53C1F3D4
For B4, in experiment [1], the EC50 came to 3.73 nM and the “Top (best-fit value)” value came to 2020. In experiment [12], this molecule had a Kd of 0.61 nM, a koff of 0.00019 s⁻¹ and a kon of 320000 M⁻¹ s⁻¹. Also, in [3], the “EC50, PD-L1 cell-based luciferase reporter assay” value came to 4.45 nM. The IC50 in experiment [4] amounted to 1.27 nM.

B5: 29A8H8C7 (antibody, V domains shown)
VH: DVQLQGSGPGLVKPSQSLSLTCTVTGYSITSDFAWDWIRQFPGNKLEWMGHIRFSGTTSYNPSLKSRISITRDTSKNQFFLQLNSVTSEDTATYYCARSTLITKGFFDYWGQGTTLTVSS
VL: DIVMTQSHKFMSTSVGGRVSITCKASQDVSPAVAWYQQKPGQSPKLLIYWASTRHTGVPDRFTGSGSGTDFTLTISSVQTEDLALYYCQQHYSTPWTFGGGTKLEIK
notes: Mouse mAb from hybridoma culture; also called mouse 29A8H8C7
Regarding B5, in experiment [1], the EC50 is 3.06 nM and the “Top (best-fit value)” value stood at 2440. In [12], this molecule returned a Kd of 0.28 nM, a koff of 0.00017 s⁻¹ and an on-rate (kon) of 620000 M⁻¹ s⁻¹. Also, the “EC50, PD-L1 cell-based luciferase reporter assay” value in [3] stood at 3.61 nM. The IC50 in experiment [4] came to 1.41 nM.

B6: 29A8_chimeric (antibody, human IgG1, kappa, N297A, V domains shown)
VH: B5 VH
VL: DIVMTQSHKFMSTSVGGRVSITCKASQDVSPAVAWYQQKPGQSPKLLIYWASTRHTGVPDRFTGSGSGTDFTLTISSVQTEDLALYYCQQHYSTPWTFGGGTKLEIKR
notes: Human IgG1 with effector-less Fc mutations, human kappa; also called chimeric 29A8H8C7
Consider B6, for which the Kd in [6] was 0.32 nM; in [9], 0.48 nM; in experiment [13], 0.25 nM; in experiment [11], 0.3 nM. Further, the off-rate constant (koff) is 0.00017 s⁻¹ in [6], 7.3e-05 s⁻¹ in experiment [9], 0.00015 s⁻¹ in experiment [13] and 0.00019 s⁻¹ in experiment [11]. Moreover, the kon is 530000 M⁻¹ s⁻¹ in [6], 150000 M⁻¹ s⁻¹ in [9], 580000 M⁻¹ s⁻¹ in experiment [13] and 640000 M⁻¹ s⁻¹ in experiment [11]. The results for the EC50 in experiment [7] and in experiment [8] were 1.08 nM and 2.77 nM, respectively. For the same molecule, the “Top (best-fit value)” value came to 6410 in experiment [7] and 8670 in [8]. Further, the “EC50, PD-L1 cell-based luciferase reporter assay” value in experiment [10] came to 1.34 nM. This molecule came in with an IC50 in [4] of 0.3 nM.

B7: 53C1_VH3-VL1.M1 (antibody, human IgG1, kappa, N297A, V domains shown)
VH: EVQLVQSGAEVKKPGASVKLSCKASGYIFTGYGITWVRQAPGQGLEWIGEIFPRRVNTYYSEKFKGRATLTADTSTSTAYMELRSLRSDDTAVYFCARDYDPYFALDYWGQGTTVTVSS
VL: DIQMTQSPSSLSASVGDRVTITCRASQDVSTAVDWYQQKPGKAPKLLIYSASYRYTGVPDRFSGSGSGTDFTFTISSLQPEDIATYYCQQHYSIPFTFGQGTKLEIKR
notes: Humanized, hIgG1 effector-less Fc, kappa; see recheck on K24R in the .M1 light chain
Take B7: in experiment [5], binding was characterised by a dissociation constant (Kd) of 0.49 nM, the koff was 0.00015 s⁻¹ and the kon is 300000 M⁻¹ s⁻¹. For the same molecule, in experiment [7], the EC50 came out at 2 nM and the “Top (best-fit value)” value is 6410. Besides, in experiment [8], the EC50 came to 4.66 nM and the “Top (best-fit value)” value stood at 8310. Besides, in experiment [9], the Kd came out at 0.71 nM, the koff was found to be 6.8e-05 s⁻¹ and the kon worked out at 95000 M⁻¹ s⁻¹. In experiment [10], the “EC50, PD-L1 cell-based luciferase reporter assay” value is 2.26 nM. This molecule came in with an IC50 in experiment [4] of 0.482 nM. Further, in experiment [11], the Kd is 0.55 nM, the koff is 0.00016 s⁻¹ and the kon worked out at 290000 M⁻¹ s⁻¹.

B8: 51F3D2G4 (antibody, V domains shown)
VH: QVQLQQSGAELARPGASVRLSCKASGYIFTGYGISWVKQRTGQGLEWIGEIFPRTANTYFNEKFKGKATLTADKSSSTAYMELRSLTSEDSAVYFCARDYDPYYALDYWGQGTSVTVSS
VL: B4 VL with S20T, G77S, I94V
notes: as for B1
For B8, in experiment [1], the EC50 was determined as 2.13 nM and the “Top (best-fit value)” value turned out to be 1720. Moreover, in [3], the “EC50, PD-L1 cell-based luciferase reporter assay” value was 8.69 nM. Moreover, the half-inhibitory concentration (IC50) in experiment [4] came to 1.23 nM.
